Data on one molecule can be found in patent publication US20220213181A1 (Novartis, published 2022).

Test [1] concerns the target T1, Rat ANGPTL4(24-405)-FLAG-His6-Avi (rat, UniProt Q6TMA8 24-405, biotin on the C-terminal Avi tag (BirA) where the protein is immobilised).
T1 sequence: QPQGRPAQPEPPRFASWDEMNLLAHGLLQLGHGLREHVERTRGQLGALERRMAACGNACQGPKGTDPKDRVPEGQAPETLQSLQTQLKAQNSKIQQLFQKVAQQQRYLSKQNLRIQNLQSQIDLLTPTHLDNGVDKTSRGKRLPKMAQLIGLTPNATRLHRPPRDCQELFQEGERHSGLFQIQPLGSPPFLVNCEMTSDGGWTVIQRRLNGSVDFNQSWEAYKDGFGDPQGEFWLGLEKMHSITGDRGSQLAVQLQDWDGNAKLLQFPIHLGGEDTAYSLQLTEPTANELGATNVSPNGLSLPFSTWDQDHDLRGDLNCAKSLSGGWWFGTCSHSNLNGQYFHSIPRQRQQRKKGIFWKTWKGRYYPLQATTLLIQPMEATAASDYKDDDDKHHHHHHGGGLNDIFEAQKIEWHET
As to the kind of experiment: Octet (ForteBio) kinetics, biotinylated antigen on streptavidin sensor, IgG in solution; Octet kinetics, rat ANGPTL4 on the sensor, antibody up to 25 nM; run 2. On the technique in general: Biolayer interferometry detects binding as a change in optical thickness at a sensor tip.

Test [2] addresses T2, Human ANGPTL4(26-406)-FLAG-His6-Avi (human, UniProt Q9BY76 24-406, biotin on the C-terminal Avi tag (BirA) where the protein is immobilised).
T2 construct: the text calls it 20 amino acids), then QP, ANGPTL4 26-406 and FLAG-His6-Avi; the signal peptide is left out here; also called full length human ANGPTL4; hANGPTL4
T2 sequence: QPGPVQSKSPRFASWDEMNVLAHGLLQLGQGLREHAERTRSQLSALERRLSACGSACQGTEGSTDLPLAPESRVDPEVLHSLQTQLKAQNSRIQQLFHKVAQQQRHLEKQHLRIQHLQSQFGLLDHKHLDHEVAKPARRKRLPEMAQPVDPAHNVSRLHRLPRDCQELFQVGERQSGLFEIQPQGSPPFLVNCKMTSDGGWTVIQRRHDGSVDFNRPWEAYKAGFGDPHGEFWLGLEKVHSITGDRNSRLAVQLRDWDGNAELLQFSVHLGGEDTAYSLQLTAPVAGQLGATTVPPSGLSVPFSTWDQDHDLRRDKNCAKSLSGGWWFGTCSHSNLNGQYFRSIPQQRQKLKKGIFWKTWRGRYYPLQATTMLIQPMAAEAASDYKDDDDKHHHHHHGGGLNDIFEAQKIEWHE
Kind of test: Octet (ForteBio) kinetics; average KD of the runs.

For test [3], the target named is T3, Cynomolgus monkey ANGPTL4(26-161)-FLAG-His6-Avi (cynomolgus monkey, biotin on the C-terminal Avi tag (BirA) where the protein is immobilised).
T3 construct: also called Cyno ANGPTL4 (26-161)
T3 chain: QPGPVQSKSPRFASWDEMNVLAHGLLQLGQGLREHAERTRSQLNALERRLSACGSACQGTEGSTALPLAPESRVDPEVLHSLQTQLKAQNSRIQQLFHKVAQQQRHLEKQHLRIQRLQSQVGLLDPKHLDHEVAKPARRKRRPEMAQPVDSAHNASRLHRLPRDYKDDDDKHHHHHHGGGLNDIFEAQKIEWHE
Kind of test: Octet (ForteBio) kinetics; average KD of the runs.

In test [4] the target is T4, Human ANGPTL4(26-161)-FLAG-His6-Avi (human, biotin on the C-terminal Avi tag (BirA) where the protein is immobilised).
T4 construct: also called human ANGPTL4 N-terminal coiled coil domain; hANGPTL4-CCD
T4 chain: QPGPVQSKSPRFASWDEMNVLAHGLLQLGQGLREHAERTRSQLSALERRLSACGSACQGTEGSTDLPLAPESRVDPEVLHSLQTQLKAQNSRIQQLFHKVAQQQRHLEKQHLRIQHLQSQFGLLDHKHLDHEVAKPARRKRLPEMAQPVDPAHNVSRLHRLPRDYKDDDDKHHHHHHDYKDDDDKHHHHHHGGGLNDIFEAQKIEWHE
As to the kind of experiment: Octet (ForteBio) kinetics; average KD of the runs.

The target in test [5] is T5, Cynomolgus monkey ANGPTL4(26-406)-FLAG-His6-Avi (cynomolgus monkey, biotin on the C-terminal Avi tag (BirA) where the protein is immobilised).
T5 construct: also called Cyno ANGPTL4 (26-406)
T5 chain: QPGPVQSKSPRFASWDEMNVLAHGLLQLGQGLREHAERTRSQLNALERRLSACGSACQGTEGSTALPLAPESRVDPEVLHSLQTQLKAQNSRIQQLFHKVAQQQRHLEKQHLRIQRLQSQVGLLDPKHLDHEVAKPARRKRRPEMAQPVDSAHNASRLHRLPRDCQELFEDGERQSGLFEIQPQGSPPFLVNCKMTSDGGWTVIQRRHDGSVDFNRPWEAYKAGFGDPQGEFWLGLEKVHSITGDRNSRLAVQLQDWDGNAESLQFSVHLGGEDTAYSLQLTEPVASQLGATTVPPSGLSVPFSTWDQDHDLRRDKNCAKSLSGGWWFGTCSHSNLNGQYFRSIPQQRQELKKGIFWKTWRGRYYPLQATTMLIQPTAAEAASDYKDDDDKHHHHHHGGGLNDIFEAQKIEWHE
Kind of test: Octet (ForteBio) kinetics; average KD of the runs.

For test [6], the target named is T1, Rat ANGPTL4(24-405)-FLAG-His6-Avi. Kind of test: Octet (ForteBio) kinetics, biotinylated antigen on streptavidin sensor, IgG in solution.
The target of test [7] is T2, Human ANGPTL4(26-406)-FLAG-His6-Avi. The description is as above.
Test [8] addresses T3, Cynomolgus monkey …. Described as above.
Test [9] concerns the target T5, Cynomolgus monkey …. The test is described as above.

Where “and” joins values, the source holds several entries; their conditions need not be identical. Identical values can stand only once.

B1: NEG276-LALA (antibody, human IgG1, kappa, L234A L235A)
heavy: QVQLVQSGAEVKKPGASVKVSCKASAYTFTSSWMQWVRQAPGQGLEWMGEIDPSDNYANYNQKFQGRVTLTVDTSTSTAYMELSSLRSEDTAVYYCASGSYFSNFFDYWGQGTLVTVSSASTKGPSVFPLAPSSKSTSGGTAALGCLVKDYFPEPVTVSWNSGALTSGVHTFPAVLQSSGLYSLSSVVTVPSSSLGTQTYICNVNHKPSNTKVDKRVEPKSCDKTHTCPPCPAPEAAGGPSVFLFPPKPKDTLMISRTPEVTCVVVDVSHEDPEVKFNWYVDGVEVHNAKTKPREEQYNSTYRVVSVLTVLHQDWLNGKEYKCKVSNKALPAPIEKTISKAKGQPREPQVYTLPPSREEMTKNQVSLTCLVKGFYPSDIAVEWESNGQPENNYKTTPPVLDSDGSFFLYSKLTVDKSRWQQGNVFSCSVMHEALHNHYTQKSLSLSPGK
light: EIVMTQSPATLSVSPGERATLSCKASQDIGSNLNWLQQKPGQAPRRLIYAVSNRGPGIPARFSGSRSGSEYTLTISSLQSEDFAVYYCLQYASSPWTFGQGTKVEIKRTVAAPSVFIFPPSDEQLKSGTASVVCLLNNFYPREAKVQWKVDNALQSGNSQESVTEQDSKDSTYSLSSTLTLSKADYEKHKVYACEVTHQGLSSPVTKSFNRGEC
Usually koff stands for the first-order rate constant of dissociation. What is called kon is a measure of how fast the partners come together. A word on the Kd: it is the equilibrium constant for the complex coming apart. Regarding B1, the koff is 0.0011 s⁻¹ in [1]; 5.9e-06 s⁻¹ and 6e-06 s⁻¹ and 7e-06 s⁻¹ in test [7]; 6.4e-06 s⁻¹ and 1.7e-05 s⁻¹ in [8]; 5.4e-06 s⁻¹ in test [9]. Besides, the kon is 170000 M⁻¹ s⁻¹ in [1]; 410000 M⁻¹ s⁻¹ and 360000 M⁻¹ s⁻¹ and 430000 M⁻¹ s⁻¹ and 680000 M⁻¹ s⁻¹ in test [7]; 270000 M⁻¹ s⁻¹ and 190000 M⁻¹ s⁻¹ in [8]; 360000 M⁻¹ s⁻¹ and 370000 M⁻¹ s⁻¹ in test [9]. Moreover, the Kd was 0.013 nM in test [2]; 0.056 nM in [3]; 0.038 nM in test [4]; 0.015 nM in test [5]; 6.03 nM in [6]; 0.014 nM and 0.017 nM and ≤ 0.012 nM and 0.01 nM in test [7]. In test [9], the Kd is 0.015 nM and ≤ 0.014 nM.
